In patent CN117700537A:

Biological target: 非洲马瘟病毒VP7重组蛋白 (AHSV VP7重组蛋白, 原核表达) (African horse sickness virus (非洲马瘟病毒))
Assay: indirect ELISA, negative control on coated VP7 recombinant protein (0.5 μg/mL)

阴性对照 (阴性抗体, 表2) (antibody)
OD450: 0.0655 OD450
